For five substances, ΔOD 350 nm plateau of 15 μM tubulin and ΔOD ratio (plateau with 8 μM compound divided by plateau of tubulin alone) results are on record in paper PMC549075.

The target in this assay is Lamb brain tubulin (lamb).
For the substance “HIV-1 Tat protein, Eli strain (natural protein)”, the ΔOD 350 nm plateau of 15 μM tubulin at 37°C with 8 μM compound was 1.61 ΔOD 350 nm and the ΔOD ratio (plateau with 8 μM compound divided by plateau of tubulin alone) was 5.27.
As to Tat Eli peptide 38-72, the ΔOD 350 nm plateau of 15 μM tubulin at 37°C with 8 μM compound was 1.59 ΔOD 350 nm and the ΔOD ratio (plateau with 8 μM compound divided by plateau of tubulin alone) was 5.2.
Regarding Tat Eli peptide 73-99, the ΔOD 350 nm plateau of 15 μM tubulin at 37°C with 8 μM compound (same level as the control: not active in tubulin polymerization) was 0.3 ΔOD 350 nm and the ΔOD ratio (plateau with 8 μM compound divided by plateau of tubulin alone) turned out to be 1.
In the case of “Tat Oyi peptide 38-72 (from UniProt P20893 38-72)”, the ΔOD 350 nm plateau of 15 μM tubulin at 37°C with 8 μM compound is 0.78 ΔOD 350 nm and the ΔOD ratio (plateau with 8 μM compound divided by plateau of tubulin alone) is 2.56.
Regarding “Tat Oyi peptide 73-101 (from UniProt P20893 73-101)”, the ΔOD 350 nm plateau of 15 μM tubulin at 37°C with 8 μM compound (same level as the control: not active in tubulin polymerization) was 0.31 ΔOD 350 nm and the ΔOD ratio (plateau with 8 μM compound divided by plateau of tubulin alone) was 1.01.
